What was measured:
[1] = molecular target: P-glycoprotein (human (endogenous in primary skin fibroblasts)) (UniProt P08183); experiment: co-IP; lysates of hypertrophic scar fibroblasts (HF) treated with latrunculin-A (0.2 μM) or DMSO for 12 h; IP with anti-P-glycoprotein or anti-MRP1 antibody, immunoblot for actin
[2] = molecular target: multidrug resistance-associated protein 1 (human (endogenous in primary skin fibroblasts)) (UniProt P33527); experiment: as above

## actin (from UniProt P60709 1-375) (natural protein)
[1]
  percent loss of the co-precipitate after latrunculin-A: 90%
[2]
  percent loss of the co-precipitate after latrunculin-A: 70%
